# PMC3774712, “Characterization of a Self-sufficient Trans-Anethole Oxygenase from Pseudomonas putida JYR-1” (PLoS ONE, 2013)
# T1: GST-TAO (wild-type, N1-348) (Pseudomonas putida, UniProt H8Y0R3)
# T1 construct: full length TAO (348 aa, 39,328 Da calculated), N-terminal GST tag kept (pGEX-5X-1), expressed in E. coli BL21(DE3), GSTrap purified, 68 kDa on SDS-PAGE
# T1 sequence (H8Y0R3 1-348): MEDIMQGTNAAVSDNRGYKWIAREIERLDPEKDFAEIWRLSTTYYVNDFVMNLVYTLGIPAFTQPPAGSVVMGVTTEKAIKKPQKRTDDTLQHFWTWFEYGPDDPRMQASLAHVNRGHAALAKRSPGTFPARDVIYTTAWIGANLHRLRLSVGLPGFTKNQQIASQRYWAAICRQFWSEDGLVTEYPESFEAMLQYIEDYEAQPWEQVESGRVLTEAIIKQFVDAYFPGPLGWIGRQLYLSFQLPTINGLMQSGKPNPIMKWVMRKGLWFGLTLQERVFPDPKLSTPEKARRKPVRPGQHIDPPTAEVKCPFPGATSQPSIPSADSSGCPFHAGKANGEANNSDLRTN
# T2: GST-TAO (N1–104) (Pseudomonas putida, UniProt H8Y0R3)
# T2 construct: N-terminal fragment residues 1-104, N-terminal GST tag kept, expressed in E. coli BL21(DE3), purified
# T2 sequence (H8Y0R3 1-104): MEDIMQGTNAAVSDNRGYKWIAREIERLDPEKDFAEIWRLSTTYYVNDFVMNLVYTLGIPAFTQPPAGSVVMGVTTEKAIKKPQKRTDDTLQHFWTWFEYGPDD
# T3: GST-TAO (N1–261) (Pseudomonas putida, UniProt H8Y0R3)
# T3 construct: N-terminal fragment residues 1-261, N-terminal GST tag kept, expressed in E. coli BL21(DE3), purified
# T3 sequence (H8Y0R3 1-261): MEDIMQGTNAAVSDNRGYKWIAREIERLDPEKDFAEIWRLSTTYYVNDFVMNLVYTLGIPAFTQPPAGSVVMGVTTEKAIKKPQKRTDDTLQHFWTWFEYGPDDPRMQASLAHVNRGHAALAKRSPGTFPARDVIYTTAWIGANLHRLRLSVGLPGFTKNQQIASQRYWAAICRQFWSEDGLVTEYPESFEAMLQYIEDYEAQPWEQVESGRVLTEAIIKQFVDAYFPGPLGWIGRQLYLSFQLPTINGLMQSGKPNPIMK
# T4: GST-TAO (N1–174) (Pseudomonas putida, UniProt H8Y0R3)
# T4 construct: N-terminal fragment residues 1-174, N-terminal GST tag kept, expressed in E. coli BL21(DE3), purified
# T4 sequence (H8Y0R3 1-174): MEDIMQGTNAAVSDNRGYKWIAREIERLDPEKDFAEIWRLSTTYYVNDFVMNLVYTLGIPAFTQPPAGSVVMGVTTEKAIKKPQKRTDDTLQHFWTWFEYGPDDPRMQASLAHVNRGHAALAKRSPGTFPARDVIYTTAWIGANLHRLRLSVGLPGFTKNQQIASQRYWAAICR
# T5: GST-TAO (N1–304) (Pseudomonas putida, UniProt H8Y0R3)
# T5 construct: N-terminal fragment residues 1-304, N-terminal GST tag kept, expressed in E. coli BL21(DE3), purified
# T5 sequence (H8Y0R3 1-304): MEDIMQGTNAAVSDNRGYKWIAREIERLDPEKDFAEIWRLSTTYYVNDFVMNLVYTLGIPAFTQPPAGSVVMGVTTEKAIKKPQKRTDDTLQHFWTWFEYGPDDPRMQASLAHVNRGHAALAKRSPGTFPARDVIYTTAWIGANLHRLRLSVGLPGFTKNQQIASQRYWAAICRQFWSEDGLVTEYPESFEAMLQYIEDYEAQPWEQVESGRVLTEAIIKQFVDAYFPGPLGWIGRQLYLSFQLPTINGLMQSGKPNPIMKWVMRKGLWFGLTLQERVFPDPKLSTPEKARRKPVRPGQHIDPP
# T6: GST-TAO (N175–348) (Pseudomonas putida, UniProt H8Y0R3)
# T6 construct: C-terminal fragment residues 175-348 (plasmid pGEX-TAO (C174)), N-terminal GST tag kept, expressed in E. coli BL21(DE3), purified
# T6 sequence (H8Y0R3 175-348): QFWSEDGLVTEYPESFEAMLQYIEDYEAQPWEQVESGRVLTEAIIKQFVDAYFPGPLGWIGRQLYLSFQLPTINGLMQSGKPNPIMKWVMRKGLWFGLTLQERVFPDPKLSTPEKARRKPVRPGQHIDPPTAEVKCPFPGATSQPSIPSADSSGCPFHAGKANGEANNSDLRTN
# Columns and labels:
# [1] = biological target: T1, GST-TAO (wild-type, N1-348); experiment: ultrafiltration, fluorescence of unbound FAD; type: binding; details: 3 µM FAD, 3 µM enzyme, 20 mM Tris-HCl pH 8.0, 25°C
# Text: ultrafiltration, fluorescence of unbound FAD on GST-TAO (wild-type, N1-348)
# GST-TAO (N1–104) = biological target: T2, GST-TAO (N1–104); experiment: ultrafiltration, fluorescence of unbound FAD; type: binding; details: 3 µM FAD, 3 µM enzyme, 20 mM Tris-HCl pH 8.0, 25°C
# Text: ultrafiltration, fluorescence of unbound FAD on GST-TAO (N1–104)
# GST-TAO (N1–261) = biological target: T3, GST-TAO (N1–261); experiment: ultrafiltration, fluorescence of unbound FAD; type: binding; details: 3 µM FAD, 3 µM enzyme, 20 mM Tris-HCl pH 8.0, 25°C
# Text: ultrafiltration, fluorescence of unbound FAD on GST-TAO (N1–261)
# GST-TAO (N1–174) = biological target: T4, GST-TAO (N1–174); experiment: ultrafiltration, fluorescence of unbound FAD; type: binding; details: 3 µM FAD, 3 µM enzyme, 20 mM Tris-HCl pH 8.0, 25°C
# Text: ultrafiltration, fluorescence of unbound FAD on GST-TAO (N1–174)
# GST-TAO (N1–304) = biological target: T5, GST-TAO (N1–304); experiment: ultrafiltration, fluorescence of unbound FAD; type: binding; details: 3 µM FAD, 3 µM enzyme, 20 mM Tris-HCl pH 8.0, 25°C
# Text: ultrafiltration, fluorescence of unbound FAD on GST-TAO (N1–304)
# GST-TAO (N175–348) = biological target: T6, GST-TAO (N175–348); experiment: ultrafiltration, fluorescence of unbound FAD; type: binding; details: 3 µM FAD, 3 µM enzyme, 20 mM Tris-HCl pH 8.0, 25°C
# Text: ultrafiltration, fluorescence of unbound FAD on GST-TAO (N175–348)
# [2] = substrate: C/C=C/c1ccc(OC)cc1; experiment: HPLC of p-anisaldehyde product, Michaelis-Menten nonlinear regression; type: biochemical, Pseudomonas putida; details: 10 mM NADH, 15 µM FAD, pH 8.0, 30°C, formate dehydrogenase regeneration, text b30 prints 64.70±2.40
# Text: HPLC of p-anisaldehyde product, Michaelis-Menten nonlinear regression on GST-TAO (wild-type, N1-348)
# purified protein [3] = substrate: C/C=C/c1ccc(OC)c(OC)c1; experiment: purified protein; details: 10 mM NADH, 15 µM FAD, pH 8.0, 30°C, formate dehydrogenase regeneration
# Text: (§1) HPLC of aldehyde product, Michaelis-Menten nonlinear regression on GST-TAO (wild-type, N1-348)
# purified protein [4] = substrate: CC=Cc1ccc(O)c(OC)c1; experiment: purified protein; details: 10 mM NADH, 15 µM FAD, pH 8.0, 30°C, formate dehydrogenase regeneration
# Text: as §1
# purified protein [5] = substrate: CC=Cc1ccc2c(c1)OCO2; experiment: purified protein; details: 10 mM NADH, 15 µM FAD, pH 8.0, 30°C, formate dehydrogenase regeneration
# Text: as §1
molecule,measurement,setting,value
Cc1cc2nc3c(=O)[nH]c(=O)nc-3n(C[C@H](O)[C@H](O)[C@H](O)COP(=O)(O)OP(=O)(O)OC[C@H]3O[C@@H](n4cnc5c(N)ncnc54)[C@H](O)[C@@H]3O)c2cc1C [FAD],μM FAD/μM enzyme,[1],0.30±0.05 µM FAD/µM enzyme
same,μM FAD/μM enzyme,GST-TAO (N1–104),0.20±0.01 µM FAD/µM enzyme
same,μM FAD/μM enzyme,GST-TAO (N1–261),0.15±0.04 µM FAD/µM enzyme
same,μM FAD/μM enzyme,GST-TAO (N1–174),0.18±0.03 µM FAD/µM enzyme
same,μM FAD/μM enzyme,GST-TAO (N1–304),0.19±0.04 µM FAD/µM enzyme
same,μM FAD/μM enzyme,GST-TAO (N175–348),0.02±0.02 µM FAD/µM enzyme
"GST-TAO (wild-type, N1-348) (Pseudomonas putida) (protein, full length TAO (348 aa, 39,328 Da calculated), N-terminal GST tag kept (pGEX-5X-1), expressed in E. coli BL21(DE3), GSTrap purified, 68 kDa on SDS-PAGE) MEDIMQGTNAAVSDNRGYKWIAREIERLDPEKDFAEIWRLSTTYYVNDFVMNLVYTLGIPAFTQPPAGSVVMGVTTEKAIKKPQKRTDDTLQHFWTWFEYGPDDPRMQASLAHVNRGHAALAKRSPGTFPARDVIYTTAWIGANLHRLRLSVGLPGFTKNQQIASQRYWAAICRQFWSEDGLVTEYPESFEAMLQYIEDYEAQPWEQVESGRVLTEAIIKQFVDAYFPGPLGWIGRQLYLSFQLPTINGLMQSGKPNPIMKWVMRKGLWFGLTLQERVFPDPKLSTPEKARRKPVRPGQHIDPPTAEVKCPFPGATSQPSIPSADSSGCPFHAGKANGEANNSDLRTN",Km,[2],63.70 ± 2.40 µM
same,Vmax,[2],0.23 µmol/min/mg
same,kcat,[2],0.49 s⁻¹
same,kcat/Km,[2],7690 M⁻¹ s⁻¹
same,Km,purified protein [3],225.65 ± 22.27 µM
same,Vmax,purified protein [3],0.06 µmol/min/mg
same,kcat,purified protein [3],0.13 s⁻¹
same,kcat/Km,purified protein [3],560 M⁻¹ s⁻¹
same,Km,purified protein [4],2255.00 ± 346.48 µM
same,Vmax,purified protein [4],0.52 µmol/min/mg
same,kcat,purified protein [4],1.13 s⁻¹
same,kcat/Km,purified protein [4],500 M⁻¹ s⁻¹
same,Km,purified protein [5],229.50 ± 32.10 µM
same,Vmax,purified protein [5],0.26 µmol/min/mg
same,kcat,purified protein [5],0.56 s⁻¹
same,kcat/Km,purified protein [5],2450 M⁻¹ s⁻¹
